Test results from article PMC5444840.
Read-outs that look alike come from different tables or passages of the source.

What was measured:
Experiment in all cases: SPR; multi-cycle kinetics, Biacore X-100: rSgC or IgD amine-coupled on a CM4 chip; different chemokine concentrations at 30 ul/min, 180 s contact, 600 s dissociation, HBS-EP pH 7.4; global fit to a 1:1 Langmuir model
[1] = biological target: VZV gC IgD (amino acids P140 to V531, with the predicted immunoglobulin-like domains) (Varicella zoster virus, Dumas strain)
Sequence of VZV gC IgD (amino acids P140 to V531, with the predicted immunoglobulin-like domains) (Varicella zoster virus, Dumas strain) (P09256 171-562 limits assumed): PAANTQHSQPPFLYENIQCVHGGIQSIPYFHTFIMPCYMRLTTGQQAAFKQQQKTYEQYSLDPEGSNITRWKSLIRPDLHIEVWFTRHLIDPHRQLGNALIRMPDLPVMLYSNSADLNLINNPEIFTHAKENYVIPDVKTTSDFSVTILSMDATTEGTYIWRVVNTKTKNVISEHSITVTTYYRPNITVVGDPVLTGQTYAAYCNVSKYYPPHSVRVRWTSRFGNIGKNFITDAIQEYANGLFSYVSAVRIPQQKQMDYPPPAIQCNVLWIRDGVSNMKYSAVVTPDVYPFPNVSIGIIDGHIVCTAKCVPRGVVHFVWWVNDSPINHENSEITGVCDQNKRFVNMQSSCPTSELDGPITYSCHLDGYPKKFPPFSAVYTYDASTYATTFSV

[2] = biological target: recombinant soluble VZV glycoprotein C ectodomain (VZV rSgC) (Varicella zoster virus, Dumas strain)
Sequence of recombinant soluble VZV glycoprotein C ectodomain (VZV rSgC) (Varicella zoster virus, Dumas strain) (P09256 54-562 limits assumed): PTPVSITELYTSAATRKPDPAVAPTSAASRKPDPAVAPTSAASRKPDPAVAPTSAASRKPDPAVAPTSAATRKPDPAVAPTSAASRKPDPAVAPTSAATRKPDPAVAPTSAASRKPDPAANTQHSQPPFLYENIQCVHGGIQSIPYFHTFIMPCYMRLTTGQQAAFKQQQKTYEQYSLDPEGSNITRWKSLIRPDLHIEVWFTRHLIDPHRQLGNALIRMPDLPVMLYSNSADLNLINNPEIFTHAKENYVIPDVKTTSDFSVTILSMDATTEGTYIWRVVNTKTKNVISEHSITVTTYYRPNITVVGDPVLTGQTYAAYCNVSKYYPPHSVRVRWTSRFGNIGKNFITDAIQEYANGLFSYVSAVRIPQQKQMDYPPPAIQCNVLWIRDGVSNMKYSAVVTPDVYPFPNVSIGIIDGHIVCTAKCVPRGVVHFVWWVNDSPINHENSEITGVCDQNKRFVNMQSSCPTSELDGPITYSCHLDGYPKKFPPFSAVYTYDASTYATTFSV

[3] = biological target: VZV gC IgD (amino acids P140 to V531, with the predicted immunoglobulin-like domains) (Varicella zoster virus, Dumas strain); remark: listed apart in the source
[4] = biological target: recombinant soluble VZV glycoprotein C ectodomain (VZV rSgC) (Varicella zoster virus, Dumas strain); remark: listed apart in the source

Molecule	Kd [1]	koff [1]	kon [1]	t(1/2) [1]	Kd [2]	koff [2]	kon [2]	t(1/2) [2]	Kd [3]	koff [3]	kon [3]	t(1/2) [3]	Kd [4]	koff [4]	kon [4]	t(1/2) [4]
CCL2 (from UniProt P13500 24-99) (ligand)	6.05 nM	0.0013 s⁻¹	214000 M⁻¹ s⁻¹	8.91 min	5.84 nM	0.00101 s⁻¹	173000 M⁻¹ s⁻¹	11.4 min	–	–	–	–	–	–	–	–
CCL13 (from UniProt Q99616 17-98) (ligand)	0.299 nM	0.00389 s⁻¹	1.3e+07 M⁻¹ s⁻¹	2.97 min	0.176 nM	0.00184 s⁻¹	1.04e+07 M⁻¹ s⁻¹	6.29 min	–	–	–	–	–	–	–	–
CCL19 (from UniProt Q99731 22-98) (ligand)	0.118 nM	0.00161 s⁻¹	1.37e+07 M⁻¹ s⁻¹	7.18 min	0.138 nM	0.00212 s⁻¹	1.54e+07 M⁻¹ s⁻¹	5.46 min	–	–	–	–	–	–	–	–
CXCL13 (ligand) VLEVYYTSLRCRCVQESSVFIPRRFIDRIQILPRGNGCPRKEIIVWKKNKSIVCVDPQAEWIQRMMEVLRKRSSSTLPVPVFKRKIP	–	–	–	–	–	–	–	–	0.567 nM	0.0015 s⁻¹	2.64e+06 M⁻¹ s⁻¹	7.72 min	0.422 nM	0.00251 s⁻¹	5.94e+06 M⁻¹ s⁻¹	4.61 min
